{"source": "paper PMC5779702", "about": "“The glutamine synthetase of Trypanosoma cruzi is required for its resistance to ammonium accumulation and evasion of the parasitophorous vacuole during host-cell infection” (PLoS Neglected Tropical Diseases, 2018)", "key": {"[1]": {"target": "T1, glutamine synthetase (TcGS) (Trypanosoma cruzi, UniProt Q4CN04)", "T1 construct": "gene Tc00.1047053503405.10; recombinant His6-tagged TcGS (TcCLB.503405.10 starting at base pair 123), expressed in E. coli", "assay": "enzyme inhibition kinetics of purified recombinant TcGS", "assay_type": "biochemical"}, "N[C@@H](CCC(=O)O)C(=O)O": {"system": "N[C@@H](CCC(=O)O)C(=O)O", "assay": "purified protein", "conditions": "Mg2+"}, "[2]": {"system": "Nc1ncnc2c1ncn2[C@@H]1O[C@H](COP(=O)(O)OP(=O)(O)OP(=O)(O)O)[C@@H](O)[C@H]1O", "assay": "purified protein", "conditions": "Mg2+"}, "[3]": {"target": "recombinant Trypanosoma cruzi glutamine synthetase (TcGS), His6-tagged (Trypanosoma cruzi)", "assay": "SEC; analytical size-exclusion chromatography of recombinant TcGS (elutions of the Ni-NTA column); mass estimated from a calibration of the column; TcGS followed in the fractions by Bradford, dot-blot, ELISA and GS activity"}}, "data": [{"compound": "CS(=N)(=O)CCC(N)C(=O)O", "note": "(centres unmarked) [MS, Methionine sulfoximine]", "values": [{"measurement": "Ki", "setting": "[1]", "value": "3.89 ± 0.04", "unit": "µM"}]}, {"compound": "glutamine synthetase (TcGS) (Trypanosoma cruzi strain CL Brener)", "values": [{"measurement": "Km", "setting": "N[C@@H](CCC(=O)O)C(=O)O", "value": "0.44 ± 0.06", "unit": "mM"}, {"measurement": "kcat", "setting": "N[C@@H](CCC(=O)O)C(=O)O", "value": "392 ± 9.5", "unit": "s⁻¹"}, {"measurement": "kcat/Km", "setting": "N[C@@H](CCC(=O)O)C(=O)O", "value": 890000, "unit": "M⁻¹ s⁻¹"}, {"measurement": "Km", "setting": "[2]", "value": "0.38 ± 0.10", "unit": "mM"}, {"measurement": "kcat", "setting": "[2]", "value": "396 ± 18.2", "unit": "s⁻¹"}, {"measurement": "kcat/Km", "setting": "[2]", "value": "1.05e+06", "unit": "M⁻¹ s⁻¹"}]}, {"compound": "recombinant Trypanosoma cruzi glutamine synthetase (TcGS), His6-tagged (enzyme)", "values": [{"measurement": "stoichiometry N", "setting": "[3]", "value": 8}]}]}
